Data: PMC10577170 (2023)
Each block holds one binder with its values, some of them ahead of it.

Experiments:
[1] = molecular target: T1, CSPG4 (chondroitin sulfate proteoglycan 4) peptide on HLA-C*07:02 (human); experiment: cytokine release
T1 peptide: HIIFPHGSL

[2] = molecular target: T2, CSPG4 (chondroitin sulfate proteoglycan 4) peptide on HLA-C*07:02 (human); experiment: cytokine release
T2 peptide: PHIIFPHGSL

[3] = molecular target: T3, CSPG4 (chondroitin sulfate proteoglycan 4) peptide on HLA-C*07:01 (human); experiment: killing
T3 peptide: HIIFPHGSL

binding result [1]: no recognition | binding result [2]: no recognition
B1: 2C/165 TCR (TCR)
alpha TRAV35*02 TRAJ34*01 CDR3: CAGSYNTDKLIF
beta TRBV3-1*01 TRBJ2-1*01 CDR3: CASSQGWTRNEQFF
binding result [3]: recognises

binding result [1]: no recognition | binding result [2]: no recognition
B2: 11C/73 TCR (TCR)
alpha TRAV12-2*02 TRAJ45*01 CDR3: CAVNAAGGGADGLTF
beta TRBV28*01 TRBJ2-2*01 CDR3: CASSYDWGGELFF
binding result [3]: recognises

B3: 11Cα-2Cβ cTCR (TCR)
alpha TRAV12-2*02 TRAJ45*01 CDR3: CAVNAAGGGADGLTF
beta TRBV3-1*01 TRBJ2-1*01 CDR3: CASSQGWTRNEQFF
binding result [3]: no recognition

B4: 2Cα-11Cβ cTCR (TCR)
alpha TRAV35*02 TRAJ34*01 CDR3: CAGSYNTDKLIF
beta TRBV28*01 TRBJ2-2*01 CDR3: CASSYDWGGELFF
binding result [3]: recognises
